What was measured:
ADI-22523 IgG = molecular target: T1, ADI-22523 IgG; assay: BLI; tip anti-ID IgG, solution ADI-22523 IgG
T1 construct: anti-CD3 IgG
Method: (§1) ForteBio affinity measurements were performed generally as previously described (Estep et al., MAbs. 2013 5(2):270-8). Briefly, ForteBio affinity measurements were performed by loading antibody IgG or Fabs on-line onto AHC sensors. Sensors were equilibrated off-line in assay buffer for 30 minutes and then monitored on-line for 60 seconds for baseline establishment. For avid binding measurement, sensors with loaded antibodies were exposed to IgG or Fab solutions for 3 minutes, afterwards they were transferred to assay buffer for 3 minutes for off-rate measurement. Kinetics data were fit using a 1:1 binding model in the data analysis software provided by ForteBio to obtain equilibrium dissociation constant (KD=koff/kₒₙ) values. In each column, tip-immobilized antibodies are listed first and solution antibodies second.

ADI-76357 = molecular target: T2, ADI-76357; assay: SPR Carterra avidity, yeast anti-ID, *koff limit
T2 construct: anti-CD3 antibody made in CHO cells, captured by anti-human Fc
Method: (§2) Kinetic analysis was conducted at 25° C. in an HBSTE running buffer system (Carterra Cat #3630) using a Carterra LSA (Carterra USA, Salt Lake City, UT). The sample compartment was maintained at 20° C. for the duration of each experiment.
(§3) For antibody capture experiments, a goat anti-human Fc antibody (Jackson ImmunoResearch) was covalently coupled to an HC30M sensor chip surface via standard amine coupling (1:1 EDC:NHS) and then blocked with ethanolamine (1.0 M, pH 8.5). Covalent coupling steps were performed in 25 mM MES buffer (Carterra, Cat #3625) plus 0.05% Tween20. The anti-CD3 antibodies (100 nM in running buffer) were flowed over discrete regions of interest on the chip surface for 5 minutes. […] Dissociation of the anti-idiotype antibodies was monitored for 300s. Several blank buffer samples were injected over the entire chip surface at the start of each non-regenerative kinetic cycle. The preceding blank buffer injection was used for blank surface subtraction. At the end of each non-regenerative kinetic cycle, all surfaces were regenerated via two 30s injections of 10 mM glycine, pH 1.7.
(§4) For data processing and fitting, sensorgrams were double reference subtracted with a baseline drift correction of 4 RU. Sensorgrams were y-aligned and baseline corrected, filtered and cropped to include only the association and dissociation steps. Data was fitted to a 1:1 binding model using Carterra Kinetics Data Analysis software version 1.7.1.3055.

ADI-26913 IgG = molecular target: T3, ADI-26913 IgG; assay: SPR Carterra avidity, yeast anti-ID, *koff limit
T3 construct: anti-CD3 IgG
Method: as §2, §3, §4

ADI-26920 IgG = molecular target: T4, ADI-26920 IgG; assay: SPR Carterra avidity, yeast anti-ID, *koff limit
T4 construct: anti-CD3 IgG
Method: as §2, §3, §4

ADI-26906 IgG = molecular target: T5, ADI-26906 IgG; assay: SPR Carterra avidity, yeast anti-ID, *koff limit
T5 construct: anti-CD3 IgG
Method: as §2, §3, §4

ADI-26943 = molecular target: T6, ADI-26943; assay: SPR Carterra avidity, yeast anti-ID, *koff limit
T6 construct: anti-CD3 antibody made in CHO cells, captured by anti-human Fc
Method: as §2, §3, §4

ADI-22523 Fab = molecular target: T7, ADI-22523 Fab; assay: BLI; tip anti-ID IgG, solution ADI-22523 Fab
T7 construct: anti-CD3 Fab by papain digestion of the IgG
Method: as §1

CTL-62240 = molecular target: T8, CTL-62240; assay: SPR Carterra, yeast anti-ID
T8 construct: also called ONO-4685
Method: as §2, §3, §4

CTL-62223 = molecular target: T9, CTL-62223; assay: SPR Carterra, yeast anti-ID
T9 construct: also called mosunetuzumab
Method: as §2, §3, §4

ADI-48587 = molecular target: T10, ADI-48587; assay: SPR Carterra, yeast anti-ID
T10 construct: pH-dependent anti-CD3 antibody made in CHO cells
Method: as §2, §3, §4

ADI-70330 = molecular target: T11, ADI-70330; assay: SPR Carterra, yeast anti-ID
T11 construct: anti-CD3 antibody made in CHO cells, captured by anti-human Fc
Method: as §2, §3, §4

ADI-26921 IgG = molecular target: T12, ADI-26921 IgG; assay: SPR Carterra, yeast anti-ID
T12 construct: anti-CD3 IgG
Method: as §2, §3, §4

ADI-70327 = molecular target: T13, ADI-70327; assay: SPR Carterra, yeast anti-ID
T13 construct: anti-CD3 antibody made in CHO cells, captured by anti-human Fc
Method: as §2, §3, §4

CTL-62228 = molecular target: T14, CTL-62228; assay: SPR Carterra, yeast anti-ID
T14 construct: also called glofitamab
Method: as §2, §3, §4

ADI-70326 = molecular target: T15, ADI-70326; assay: SPR Carterra, yeast anti-ID
T15 construct: anti-CD3 antibody made in CHO cells, captured by anti-human Fc
Method: as §2, §3, §4

CTL-62227 = molecular target: T16, CTL-62227; assay: SPR Carterra, yeast anti-ID
T16 construct: also called odronextamab
Method: as §2, §3, §4

ADI-26915 = molecular target: T17, ADI-26915; assay: SPR Carterra, yeast anti-ID
T17 construct: anti-CD3 antibody made in CHO cells, captured by anti-human Fc
Method: as §2, §3, §4

ADI-67445 = molecular target: T18, ADI-67445; assay: SPR Carterra, yeast anti-ID
T18 construct: anti-CD3 antibody made in CHO cells, captured by anti-human Fc
Method: as §2, §3, §4

ADI-74967 = molecular target: T19, ADI-74967; assay: SPR Carterra, yeast anti-ID
T19 construct: pH-dependent anti-CD3 antibody made in CHO cells
Method: as §2, §3, §4

ADI-26909 = molecular target: T20, ADI-26909; assay: SPR Carterra, yeast anti-ID
T20 construct: anti-CD3 antibody made in CHO cells, captured by anti-human Fc
Method: as §2, §3, §4

ADI-76361 = molecular target: T21, ADI-76361; assay: SPR Carterra avidity, yeast anti-ID
T21 construct: anti-CD3 antibody made in CHO cells, captured by anti-human Fc
Method: as §2, §3, §4

ADI-26912 = molecular target: T22, ADI-26912; assay: SPR Carterra avidity, yeast anti-ID
T22 construct: anti-CD3 antibody made in CHO cells, captured by anti-human Fc
Method: as §2, §3, §4

ADI-76362 = molecular target: T23, ADI-76362; assay: SPR Carterra avidity, yeast anti-ID
T23 construct: anti-CD3 antibody made in CHO cells, captured by anti-human Fc
Method: as §2, §3, §4

ADI-67447 = molecular target: T24, ADI-67447; assay: SPR Carterra avidity, yeast anti-ID
T24 construct: anti-CD3 antibody made in CHO cells, captured by anti-human Fc
Method: as §2, §3, §4

ADI-26916 IgG = molecular target: T25, ADI-26916 IgG; assay: SPR Carterra avidity, yeast anti-ID
T25 construct: anti-CD3 IgG
Method: as §2, §3, §4

ADI-76359 = molecular target: T26, ADI-76359; assay: SPR Carterra avidity, yeast anti-ID
T26 construct: anti-CD3 antibody made in CHO cells, captured by anti-human Fc
Method: as §2, §3, §4

ADI-76358 = molecular target: T27, ADI-76358; assay: SPR Carterra avidity, yeast anti-ID
T27 construct: anti-CD3 antibody made in CHO cells, captured by anti-human Fc
Method: as §2, §3, §4

ADI-26924 = molecular target: T28, ADI-26924; assay: SPR Carterra avidity, yeast anti-ID
T28 construct: anti-CD3 antibody made in CHO cells, captured by anti-human Fc
Method: as §2, §3, §4

ADI-48576 = molecular target: T29, ADI-48576; assay: SPR Carterra avidity, yeast anti-ID
T29 construct: pH-dependent anti-CD3 antibody made in CHO cells
Method: as §2, §3, §4

ADI-74965 = molecular target: T30, ADI-74965; assay: SPR Carterra avidity, yeast anti-ID
T30 construct: pH-dependent anti-CD3 antibody made in CHO cells
Method: as §2, §3, §4

ADI-67450 = molecular target: T31, ADI-67450; assay: SPR Carterra avidity, yeast anti-ID
T31 construct: anti-CD3 antibody made in CHO cells, captured by anti-human Fc
Method: as §2, §3, §4

ADI-76360 = molecular target: T32, ADI-76360; assay: SPR Carterra avidity, yeast anti-ID
T32 construct: anti-CD3 antibody made in CHO cells, captured by anti-human Fc
Method: as §2, §3, §4

ADI-48650 = molecular target: T33, ADI-48650; assay: SPR Carterra avidity, yeast anti-ID
T33 construct: pH-dependent anti-CD3 antibody made in CHO cells
Method: as §2, §3, §4

ADI-50024 = molecular target: T34, ADI-50024; assay: SPR Carterra avidity, yeast anti-ID
T34 construct: anti-CD3 antibody made in CHO cells, captured by anti-human Fc
Method: as §2, §3, §4

ADI-74968 = molecular target: T35, ADI-74968; assay: SPR Carterra avidity, yeast anti-ID
T35 construct: pH-dependent anti-CD3 antibody made in CHO cells
Method: as §2, §3, §4

ADI-74966 = molecular target: T36, ADI-74966; assay: SPR Carterra avidity, yeast anti-ID
T36 construct: pH-dependent anti-CD3 antibody made in CHO cells
Method: as §2, §3, §4

ADI-48592 = molecular target: T37, ADI-48592; assay: SPR Carterra avidity, yeast anti-ID
T37 construct: pH-dependent anti-CD3 antibody made in CHO cells
Method: as §2, §3, §4

ADI-26919 = molecular target: T38, ADI-26919; assay: SPR Carterra avidity, yeast anti-ID
T38 construct: anti-CD3 antibody made in CHO cells, captured by anti-human Fc
Method: as §2, §3, §4

T5 sequence (VH, as listed by the source limits assumed, chain 1 of 2): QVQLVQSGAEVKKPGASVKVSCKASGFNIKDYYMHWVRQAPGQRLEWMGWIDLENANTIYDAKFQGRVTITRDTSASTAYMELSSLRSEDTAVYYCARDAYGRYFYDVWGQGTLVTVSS
T5 sequence (VL, as listed by the source limits assumed, chain 2 of 2): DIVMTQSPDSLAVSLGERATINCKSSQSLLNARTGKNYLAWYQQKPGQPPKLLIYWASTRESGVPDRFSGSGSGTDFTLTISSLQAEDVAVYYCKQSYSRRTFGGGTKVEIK
T38 sequence (VL, as listed by the source limits assumed, chain 2 of 2): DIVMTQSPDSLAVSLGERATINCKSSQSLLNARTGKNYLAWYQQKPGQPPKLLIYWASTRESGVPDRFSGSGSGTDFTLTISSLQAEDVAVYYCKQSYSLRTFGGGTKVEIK
T25 sequence (VH, as listed by the source, chain 1 of 2): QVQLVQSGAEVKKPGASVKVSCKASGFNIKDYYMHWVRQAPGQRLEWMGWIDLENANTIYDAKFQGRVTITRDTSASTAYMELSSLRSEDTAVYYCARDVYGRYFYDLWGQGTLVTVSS
T22 sequence (VH, as listed by the source, chain 1 of 2): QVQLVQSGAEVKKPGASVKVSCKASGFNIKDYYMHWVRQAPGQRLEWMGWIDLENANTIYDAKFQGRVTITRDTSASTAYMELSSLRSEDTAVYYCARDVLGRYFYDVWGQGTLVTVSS
T9 sequence (VH, as listed by the source, chain 1 of 2): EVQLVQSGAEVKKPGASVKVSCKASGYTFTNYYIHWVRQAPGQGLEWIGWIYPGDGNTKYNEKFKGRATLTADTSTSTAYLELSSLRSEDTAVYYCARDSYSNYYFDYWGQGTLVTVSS
T9 sequence (VL, as listed by the source, chain 2 of 2): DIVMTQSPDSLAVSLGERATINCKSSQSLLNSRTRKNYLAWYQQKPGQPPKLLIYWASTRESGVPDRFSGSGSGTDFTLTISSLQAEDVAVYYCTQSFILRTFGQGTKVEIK
T30 sequence (VH, as listed by the source, chain 1 of 2): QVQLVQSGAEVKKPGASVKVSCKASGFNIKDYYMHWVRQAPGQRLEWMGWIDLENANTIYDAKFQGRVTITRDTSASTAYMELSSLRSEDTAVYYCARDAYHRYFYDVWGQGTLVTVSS
T30 sequence (VL, as listed by the source, chain 2 of 2): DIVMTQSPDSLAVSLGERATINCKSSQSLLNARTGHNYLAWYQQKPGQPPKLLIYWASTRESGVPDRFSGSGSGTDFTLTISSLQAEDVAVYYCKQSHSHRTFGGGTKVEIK
T35 sequence (VL, as listed by the source, chain 2 of 2): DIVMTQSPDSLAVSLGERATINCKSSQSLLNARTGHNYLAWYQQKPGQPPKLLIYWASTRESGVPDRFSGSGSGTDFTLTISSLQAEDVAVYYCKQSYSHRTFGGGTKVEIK
T24 sequence (VH, as listed by the source limits assumed, chain 1 of 2): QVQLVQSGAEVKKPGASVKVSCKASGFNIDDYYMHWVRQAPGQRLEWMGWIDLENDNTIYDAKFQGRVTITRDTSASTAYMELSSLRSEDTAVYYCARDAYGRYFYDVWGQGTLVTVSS
T2 sequence (VH, as listed by the source, chain 1 of 2): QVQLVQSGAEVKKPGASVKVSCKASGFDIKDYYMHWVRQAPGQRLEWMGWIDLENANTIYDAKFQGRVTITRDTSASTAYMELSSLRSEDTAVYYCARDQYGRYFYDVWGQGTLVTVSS
T12 sequence (VH, as listed by the source limits assumed, chain 1 of 2): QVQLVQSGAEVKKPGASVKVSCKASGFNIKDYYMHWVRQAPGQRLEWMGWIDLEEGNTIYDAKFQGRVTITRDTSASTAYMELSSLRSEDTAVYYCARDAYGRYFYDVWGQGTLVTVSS
T16 sequence (VH, as listed by the source, chain 1 of 2): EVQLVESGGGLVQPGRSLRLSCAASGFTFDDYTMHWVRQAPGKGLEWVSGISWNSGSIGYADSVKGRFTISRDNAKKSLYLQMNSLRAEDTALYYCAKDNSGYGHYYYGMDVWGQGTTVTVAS
T16 sequence (VL, as listed by the source, chain 2 of 2): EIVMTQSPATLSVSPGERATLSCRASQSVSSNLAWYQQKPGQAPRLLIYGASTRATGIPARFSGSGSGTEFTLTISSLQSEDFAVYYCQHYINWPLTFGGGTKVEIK
T34 sequence (VH, as listed by the source limits assumed, chain 1 of 2): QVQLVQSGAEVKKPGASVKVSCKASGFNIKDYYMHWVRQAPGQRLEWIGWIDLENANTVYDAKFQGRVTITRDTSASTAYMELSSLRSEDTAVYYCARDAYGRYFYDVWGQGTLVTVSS
T34 sequence (VL, as listed by the source limits assumed, chain 2 of 2): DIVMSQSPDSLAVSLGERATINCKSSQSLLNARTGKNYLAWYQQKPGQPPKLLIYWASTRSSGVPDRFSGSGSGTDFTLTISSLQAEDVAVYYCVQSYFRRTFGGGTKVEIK
T17 sequence (VH, as listed by the source, chain 1 of 2): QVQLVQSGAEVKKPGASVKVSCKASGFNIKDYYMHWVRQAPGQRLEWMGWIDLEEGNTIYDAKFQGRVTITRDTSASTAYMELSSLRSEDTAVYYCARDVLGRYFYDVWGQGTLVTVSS
T31 sequence (VH, as listed by the source limits assumed, chain 1 of 2): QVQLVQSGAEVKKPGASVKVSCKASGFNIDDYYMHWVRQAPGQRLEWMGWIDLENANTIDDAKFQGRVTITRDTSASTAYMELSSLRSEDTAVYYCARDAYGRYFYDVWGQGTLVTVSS
T4 sequence (VH, as listed by the source limits assumed, chain 1 of 2): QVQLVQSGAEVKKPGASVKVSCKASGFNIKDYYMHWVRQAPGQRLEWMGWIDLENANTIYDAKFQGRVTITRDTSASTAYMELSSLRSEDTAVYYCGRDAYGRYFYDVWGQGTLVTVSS
T32 sequence (VH, as listed by the source, chain 1 of 2): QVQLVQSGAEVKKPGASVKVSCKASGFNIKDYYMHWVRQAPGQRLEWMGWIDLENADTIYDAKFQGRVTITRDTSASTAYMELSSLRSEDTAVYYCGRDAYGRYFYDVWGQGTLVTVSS
T21 sequence (VH, as listed by the source, chain 1 of 2): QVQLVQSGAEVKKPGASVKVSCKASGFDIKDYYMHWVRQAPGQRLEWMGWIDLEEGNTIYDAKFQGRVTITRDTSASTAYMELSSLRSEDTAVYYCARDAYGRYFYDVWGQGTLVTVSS
T15 sequence (VH, as listed by the source limits assumed, chain 1 of 2): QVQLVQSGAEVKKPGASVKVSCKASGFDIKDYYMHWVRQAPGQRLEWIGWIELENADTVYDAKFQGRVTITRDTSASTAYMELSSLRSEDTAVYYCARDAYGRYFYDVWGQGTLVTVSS

B1: ADI-34144 (antibody, V domains shown)
VH: EVQLLESGGGLVQPGGSLRLSCAASGFTFSSYAMSWVRQAPGKGLEWVSTISGSGGSTYYADSVKGRFTISRDNSKNTLYLQMNSLRAEDTAVYYCARLGGRRGSGSSYYYYYGMDVWGQGTTVTVSS
VL: not shown
notes: anti-ID IgG
Kd (ADI-22523 IgG): 2.6 nM
Kd (ADI-76357): 6.3 nM
Kd (ADI-26913 IgG): 8.6 nM
Kd (ADI-26920 IgG): 7.5 nM
Kd (ADI-26906 IgG): 12 nM
Kd (ADI-26943): 5.1 nM
Kd (ADI-22523 Fab): 6.17 nM
binding result (CTL-62240): no binding (tested: up to 200 nM)
binding result (CTL-62223): no binding (tested: up to 200 nM)
binding result (ADI-48587): no binding (tested: up to 200 nM)
binding result (ADI-70330): no binding (tested: up to 200 nM)
binding result (ADI-26921 IgG): no binding (tested: up to 200 nM)
binding result (ADI-70327): no binding (tested: up to 200 nM)
binding result (CTL-62228): no binding (tested: up to 200 nM)
binding result (ADI-70326): no binding (tested: up to 200 nM)
binding result (CTL-62227): no binding (tested: up to 200 nM)
binding result (ADI-26915): no binding (tested: up to 200 nM)
binding result (ADI-67445): no binding (tested: up to 200 nM)
binding result (ADI-74967): no binding (tested: up to 200 nM)
binding result (ADI-26909): no binding (tested: up to 200 nM)
binding result (ADI-76361): binds
binding result (ADI-26912): binds
binding result (ADI-76362): binds
Kd (ADI-67447): 22 nM
Kd (ADI-26916 IgG): 16 nM
Kd (ADI-76359): 17 nM
binding result (ADI-76358): binds
Kd (ADI-26924): 4.9 nM
binding result (ADI-48576): binds
binding result (ADI-74965): binds
binding result (ADI-67450): binds
binding result (ADI-76360): binds
binding result (ADI-48650): binds
binding result (ADI-50024): binds
Kd (ADI-74968): 72 nM
Kd (ADI-74966): 59 nM
binding result (ADI-48592): binds
Kd (ADI-26919): 32 nM

Source: patent US20250019439A1 (Adimab, published 2025)
